For assay [1], the target named is cell-expressed CD40 (UniProt P25942). In words: cell binding on HEK-Blue-CD40L cells, Alexa-Fluor-488 anti-human IgG, high content imaging.
In assay [2] the target is recombinant CD40 protein (UniProt P25942). In words: CD40L competition ELISA: antibody (5 µg/ml) preincubated with recombinant CD40 (1.7 µg/ml), complex added to coated CD40L, detected with anti-human F(ab)2-peroxidase; a high signal means no competition with CD40L (antibody and CD40L bound to CD40 together). (In general: ELISA stands for enzyme-linked immunosorbent assay.)
recombinant CD40 protein, sequence (P25942 21-193 limits assumed): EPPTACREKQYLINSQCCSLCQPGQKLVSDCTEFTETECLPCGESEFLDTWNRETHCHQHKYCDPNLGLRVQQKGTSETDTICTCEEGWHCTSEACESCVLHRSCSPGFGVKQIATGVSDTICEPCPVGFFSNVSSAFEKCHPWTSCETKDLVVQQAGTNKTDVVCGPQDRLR

cell-expressed CD40, sequence (P25942 21-277 limits assumed): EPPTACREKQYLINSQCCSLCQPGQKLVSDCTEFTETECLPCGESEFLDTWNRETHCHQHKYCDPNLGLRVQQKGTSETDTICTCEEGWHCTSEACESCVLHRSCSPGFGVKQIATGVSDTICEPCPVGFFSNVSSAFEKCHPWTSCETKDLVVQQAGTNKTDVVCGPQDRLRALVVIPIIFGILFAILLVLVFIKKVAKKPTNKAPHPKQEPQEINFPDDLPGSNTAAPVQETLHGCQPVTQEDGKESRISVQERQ

On to CP-870,893 IgG1-LALA (antibody), for which the half-maximal effective concentration (EC50) in assay [1] amounted to 0.0145 µg/mL. In addition, the OD at 450 nm in assay [2] came out at 2.54 OD.

A word on the EC50: it is the midpoint of the concentration-response curve.

The values above are taken from patent US20240010741A1.
